Measurements: US20250339554A1 (BROAD INSTITUTE, published 2025)

B1: PNMA2 (other)
chain: MALALLEDWCRIMSVDEQKSLMVTGIPADFEEAEIQEVLQETLKSLGRYRLLGKIFRKQENANAVLLELLEDTDVSAIPSEVQGKGGVWKVIFKTPNQDTEFLERLNLFLEKEGQTVSGMFRALGQEGVSPATVPCISPELLAHLLGQAMAHAPQPLLPMRYRKLRVFSGSAVPAPEEESFEVWLEQATEIVKEWPVTEAEKKRWLAESLRGPALDLMHIVQADNPSISVEECLEAFKQVFGSLESRRTAQVRYLKTYQEEGEKVSAYVLRLETLLRRAVEKRAIPRRIADQVRLEQVMAGATLNQMLWCRLRELKDQGPPPSFLELMKVIREEEEEEASFENESIEEPEERDGYGRWNHEGDD
notes: Self-assembling capsid protein; It was tested as particles from HEK293 supernatant (HA-tag pulldown) and as monomers and capsids assembled in vitro
B2: PNMA7A (other)
chain: MASIIARVGNSRRLNAPLPPWAHSMLRSLGRSLGPIMASMADRNMKLFSGRVVPAQGEETFENWLTQVNGVLPDWNMSEEEKLKRLMKTLRGPAREVMRVLQATNPNLSVADFLRAMKLVFGESESSVTAHGKFFNTLQAQGEKASLYVIRLEVQLQNAIQAGIIAEKDANRTRLQQLLLGGELSRDLRLRLKDFLRMYANEQERLPNFLELIRMVREEEDWDDAFIKRKRPKRSESMVERAVSPVAFQGSPPIVIGSADCNVIEIDDTLDDSDEDVILVESQDPPLPSWGAPPLRDRARPQDEVLVIDSPHNSRAQFPSTSGGSGYKNNGPGEMRRARKRKHTIRCSYCGEEGHSKETCDNESDKAQVFENLIITLQELTHTEMERSRVAPGEYNDFSEPL
notes: also called ZCCHC12
B3: PNMA7B (other)
chain: MASITACVGNSRQQNAPLPPWAHSMLRSLGRSLCPLVVKMAERNMKLFSGRVVPAQGKETFENWLIQVNEVLPDWSMSEEEKLKRLMKTLRGPAREVMRLLQAANPNLSVADFLRAMKLVFGESESSVTAHGKFFNTLQAQGEKASLYVIRLEVQLQNAIQAGILAEKDANQTRLQQLLLGAELNRDLRFRLKHLLRMYANKQERLPNFLELIKMIREEEDWDDAFIKRKRPKRSEPIMERAASPVAFQGAQPIAISSADCNCNVIEIDDTLDDSDEDVILVVSLYPSLTPTGAPPFRGRARPLDQVLVIDSPNNSGAQSLSTSGGSGYKNDGPGNIRRARKRKYTTRCSYCGEEGHSKETCDNESNKAQVFENLIITLQELTHTEERSKEVPGEHSDASEPQ
notes: Capsids were purified from E. coli; also called ZCCHC18
B4: PNMA1 (other)
chain: MAMTLLEDWCRGMDVNSQRALLVWGIPVNCDEAEIEETLQAAMPQVSYRMLGRMFWREENAKAALLELTGAVDYAAIPREMPGKGGVWKVLFKPPTSDAEFLERLHLFLAREGWTVQDVARVLGFQNPTPTPGPEMPAEMLNYILDNVIQPLVESIWYKRLTLFSGRDIPGPGEETFDPWLEHTNEVLEEWQVSDVEKRRRLMESLRGPAADVIRILKSNNPAITTAECLKALEQVFGSVESSRDAQIKFLNTYQNPGEKLSAYVIRLEPLLQKVVEKGAIDKDNVNQARLEQVIAGANHSGAIRRQLWLTGAGEGPAPNLFQLLVQIREEEAKEEEEEAEATLLQLGLEGHF
notes: Self-assembling capsid protein
B5: PNMA6A (other)
chain: MAVTMLQDWCRWMGVNARRGLLILGIPEDCDDAEFQESLEAALRPMGHFTVLGKAFREEDNATAALVELDREVNYALVPREIPGTGGPWNVVFVPRCSGEEFLGLGRVFHFPEQEGQMVESVAGALGVGLRRVCWLRSIGQAVQPWVEAVRCQSLGVFSGRDQPAPGEESFEVWLDHTTEMLHVWQGVSERERRRRLLEGLRGTALQLVHALLAENPARTAQDCLAALAQVFGDNESQATIRVKCLTAQQQSGERLSAFVLRLEVLLQKAMEKEALARASADRVRLRQMLTRAHLTEPLDEALRKLRMAGRSPSFLEMLGLVRESEAWEASLARSVRAQTQEGAGARAGAQAVARASTKVEAVPGGPGREPEGLLQAGGQEAEELLQEGLKPVLEECDN
B6: PNMA5 (other)
chain: MALTLLEDWCKGMDMDPRKALLIVGIPMECSEVEIQDTVKAGLQPLCAYRVLGRMFRREDNAKAVFIELADTVNYTTLPSHIPGKGGSWEVVVKPRNPDDEFLSRLNYFLKDEGRSMTDVARALGCCSLPAESLDAEVMPQVRSPPLEPPKESMWYRKLKVFSGTASPSPGEETFEDWLEQVTEIMPIWQVSEVEKRRRLLESLRGPALSIMRVLQANNDSITVEQCLDALKQIFGDKEDFRASQFRFLQTSPKIGEKVSTFLLRLEPLLQKAVHKSPLSVRSTDMIRLKHLLARVAMTPALRGKLELLDQRGCPPNFLELMKLIRDEEEWENTEAVMKNKEKPSGRGRGASGRQARAEASVSAPQATVQARSFSDSSPQTIQGGLPPLVKRRRLLGSESTRGEDHGQATYPKAENQTPGREGPQAAGEELGNEAGAGAMSHPKPWET
notes: Capsids were purified from E. coli

Legend:
[1] = target: the molecule itself; assay: SEC, iodixanol gradient and TEM of particles from HEK293 supernatant; self-assembly into capsids
[2] = target: the molecule itself; assay: electron microscopy; self-assembly
[3] = target: the molecule itself; assay: TEM of capsids purified from E. coli; self-assembly
[4] = target: the molecule itself; assay: size-exclusion chromatography of purified PNMA1; self-assembly

| Protein | binding result [2] | binding result [3] | other results |
| --- | --- | --- | --- |
| B1 |  |  | binding result [1]: binds |
| B2 | binds |  |  |
| B3 |  | binds |  |
| B4 |  |  | binding result [4]: binds |
| B5 | binds |  |  |
| B6 |  | binds |  |
